Data taken from paper PMC9181416.

Target: PIN1 HL-1, fragment of the PIN1 hydrophilic loop, amino acids 289-451 (Arabidopsis thaliana) (UniProt Q9C6B8)
Test: AUC; sedimentation velocity, 42,000 rpm, 20 °C, 50 mM NaP pH 7.4, 150 mM NaCl, absorbance at 280 nm, c(s) distribution (SEDFIT); PIN1 HL-1 at 1.26 mg/mL; monomer to dimer

- stoichiometry N: 2
Substance: PIN1 HL-1, fragment of the PIN1 hydrophilic loop, amino acids 289-451 (from UniProt Q9C6B8 289-451) (domain or fragment)
